# Laboratory results as given in IntAct's records for PubMed 29749471.
# B1: Bcl-2-like protein 12 (Homo sapiens), Q9HB09 (parent)
# chain: MAGSEELGLREDTLRVLAAFLRRGEAAGSPVPTPPRSPAQEEPTDFLSRLRRCLPCSLGRGAAPSESPRPCSLPIRPCYGLEPGPATPDFYALVAQRLEQLVQEQLKSPPSPELQGPPSTEKEAILRRLVALLEEEAEVINQKLASDPALRSKLVRLSSDSFARLVELFCSRDDSSRPSRACPGPPPPSPEPLARLALAMELSRRVAGLGGTLAGLSVEHVHSFTPWIQAHGGWEGILAVSPVDLNLPLD
# Variants of: B1
# Conditions: with bax_human BAX
row,Variant,effect of a mutation on the interaction
1,E136A,with no effect
2,I125A,with no effect
3,L129A,with no effect
4,L133A,with no effect
5,E134A,with no effect
6,L132A,with no effect

# Variants of: B1
# Conditions: with gsk3b_human GSK3B
row,Variant,effect of a mutation on the interaction
1,I125A,disrupting interaction strength

# Variants of: B1
# Conditions: with BCL2L1, Q07817-1
# Sequence of BCL2L1, Q07817-1 (Q07817 whole entry): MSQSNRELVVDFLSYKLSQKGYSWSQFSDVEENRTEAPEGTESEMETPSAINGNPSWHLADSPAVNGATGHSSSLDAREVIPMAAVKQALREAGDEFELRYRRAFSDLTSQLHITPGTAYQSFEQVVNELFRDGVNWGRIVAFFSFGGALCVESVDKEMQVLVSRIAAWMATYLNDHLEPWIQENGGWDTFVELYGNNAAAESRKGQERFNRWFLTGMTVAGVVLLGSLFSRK
row,Variant,effect of a mutation on the interaction
1,L129A,disrupting interaction strength

# Variants of: B1
# Conditions: with bcl2_human BCL2, P10415
# Sequence of bcl2_human BCL2, P10415 (P10415 whole entry): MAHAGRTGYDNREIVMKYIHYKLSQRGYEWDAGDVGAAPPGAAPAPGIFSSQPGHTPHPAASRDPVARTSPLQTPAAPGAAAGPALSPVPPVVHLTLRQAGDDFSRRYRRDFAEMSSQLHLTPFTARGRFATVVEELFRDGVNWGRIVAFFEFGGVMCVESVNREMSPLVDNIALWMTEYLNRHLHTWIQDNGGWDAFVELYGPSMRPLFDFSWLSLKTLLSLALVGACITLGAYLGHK
row,Variant,effect of a mutation on the interaction
1,L129A,disrupting interaction strength
